The format of data set [1] is biochemical. Particulars: read-out: Km(ATP); 100 μM SPS.
Data set [2] is classed as biochemical. Particulars: read-out: Km(SPS); Src peptide substrate.

Results on 1 molecule are retold here after PMC4230323 (Biochemistry, 2014).

Where two headings read alike, the source gives them in different places.

B1: Lyn^SH2eng: Lyn Q509E/Q510E/Q511I three-domain construct with enhanced SH2 engagement (protein)
chain: QGDIVVALYPYDGIHPDDLSFKKGEKMKVLEEHGEWWKAKSLLTKKEGFIPSNYVAKLNTLETEEWFFKDITRKDAERQLLAPGNSAGAFLIRESETLKGSFSLSVRDFDPVHGDVIKHYKIRSLDNGGYYISPRITFPCISDMIKHYQKQADGLCRRLEKACISPKPQKPWDKDAWEIPRESIKLVKRLGAGQFGEVWMGYYNNSTKVAVKTLKPGTMSVQAFLEEANLMKTLQHDKLVRLYAVVTREEPIYIITEYMAKGSLLDFLKSDEGGKVLLPKLIDFSAQIAEGMAYIERKNYIHRDLRAANVLVSESLMCKIADFGLARVIEDNEYTAREGAKFPIKWTAPEAINFGCFTIKSDVWSFGILLYEIVTYGKIPYPGRTNADVMTALSQGYRMPRVENCPDELYDIMKMCWKEKAEERPTFDYLQSVLDDFYTATEGQYEEIP
modifications: left off: His tag, N-terminal, kept
Take B1: the Michaelis constant (Km) in data set [1] came out at 54 ± 5 µM; in data set [2], 60 ± 10 µM.

What is called Km is the substrate concentration at which the rate is half of its maximum.
